Results: PMC7307210

Target: SAR1A (human) (UniProt Q9NR31)
Test: liposome flotation assay; SAR1 and SEC31A-af incubated with 100-nm synthetic liposomes and GMP-PNP, 30 min at 37 °C, floated through a sucrose gradient in HKM buffer (pH 6.8); SDS-PAGE and SYPRO-Ruby staining; SEC31-af signal normalized to SAR1

- fold recruitment relative to SAR1B: 2 fold
Substance: GTPase-activating fragment of SEC31A (from UniProt O94979 1-1220) (domain or fragment)
